# In patent US7271245B2, “Methods and compositions for inhibition of metastasis” (The Scripps Research Institute, priority 2004, dated 2007):
# B1: Bc-12: patient derived human scFv antibody against activated αvβ3 with RGD motif in CDR-H3; cDNA ATCC PTA-6303 (protein)
# scFv: MAQVQLVQSGAEVKKPGASVKVSCKASGYTFSNYGITWVRQAPGQGLEWMGWINNGNTHYAQKFQGRVTMTTDTSTSTAYMELRSLRSDDTAVYYCARDPRGDDEPYWGQGTLVTVSSGGGGSGGGGSGGGGSEIVLTQSPLSLPVTLGQPASISCRSSQNLVYSDGNTYLSWFQQRPGQSPRRLIYKVSNRDSGVPDRFSGSGSGTDFTLKISRVEAEDIGVYYCMQGTHWPPRTFGQGTKVEIKRGLGGLVDYKDDDDK
# How the values were obtained:
# activated integrin αvβ3 = assay: Flow cytometry, scFv binding to MDA-MB 435 variants and patient metastatic breast cancer cells; parameters: species or system human
# Method: FIGS. 1A, 1B, 1C. Patient derived scFvs Bc-12 and Bc-15 recognize tumor cell integrin αvβ3 in a cation and activation dependent manner. Flow cytometric analyses in TBS with or without 1 mM Ca^2+, 1 mM Mg^2+, or 0.2 mM Mn^2+ as indicated. Binding of soluble scFv detected after incubation with anti-Flag M2 murine mAb followed by FITC-anti mouse F(ab′)2. (A) scFv binding to human melanoma cells (M21: αvβ3 plus other αv integrins) (M21-LIIb: αIIbβ3, no αv integrins) or lung adenocarcinoma cells (UCLA-P3: αv integrins, no β3 integrin). (B) scFv binding to M21 melanoma cells. (C) scFv binding to variants of MDA-MB 435 human breast cancer cells that lack (β^3−) or express αvβ3 either in a non-activated (β3WT, ParentCo) or activated form (β3D723R, Bone, Lung, and BMS metastatic cancer cells isolated from breast cancer patient blood).
# FIGS. 2A, 2B, 2C, 2D. Translation of scFv DNA sequence analyses. (A) Consensus amino acid sequence (SEQ ID NO: 9) of Bc-12 (SEQ ID NO: 7) and Bc-15 (SEQ ID NO: 8) (specific for activated αvβ3) compared to Bc-20 (specific for αv) (SEQ ID NO: 10). (B) scFv binding to BMS human breast cancer cells by flow cytometry, indicating loss of Bc-12 and Bc-15 binding when CDR-H3 RGD is mutated to RGE (Mut-12 and Mut-15). […] (C) cDNA sequences for scFv Bc-12 (SEQ ID NO: 1) and scFv Bc-15 (SEQ ID NO: 3). The cDNA encoding scFv Bc-12 has an ATCC accession number PTA-6303, date of deposit: Nov. 12, 2004. The cDNA encoding scFv Bc-15 has an ATCC accession number PTA-6304, date of deposit: Nov. 12, 2004. (D) cDNA sequences for scFv Mut-12 (SEQ ID NO: 5) and scFv Mut-15 (SEQ ID NO: 6). scFv Mut-12 is the RGE containing mutant version of scFv Bc-12. scFv Mut-15 is the RGE containing mutant version of scFv Bc-15.
# Flow cytometry. scFv binding to human tumor cells was analyzed by flow cytometry, initially with cloned scFv phage and then with purified scFv protein. Per sample, 2×10^5 tumor cells were blocked with goat serum and incubated either with scFv phage (2-5×10^10) (1 h at RT) followed by mouse anti-M13 mAb (Serotec) (30 min on ice) and goat FITC-anti mouse (Pierce) (30 min on ice), or with purified scFv (1.25 to 40 μg/ml, routinely 10 to 15 μg/ml) (45 min on ice), followed by mouse anti-FLAG mAb M2 (Sigma) (30 min on ice) and goat FITC-anti mouse. Binding/washing buffer was TBS with or without divalent cations (1 mM Ca^2+, 1 mM Mg^2+, 0.2 mM Mn^2+). Alternatively, tumor cells were washed in 10 ml of plasma (prepared freshly from human blood anticoagulated with 50 nM D-Phe-D-Pro-D-arginyl chloromethyl ketone, PPACK, Felding-Habermann et al., J. Biol. Chem. 271: 5892-5900, 1996), resuspended in plasma and then incubated sequentially, without washing, with purified scFv (45 min on ice), followed by anti-FLAG M2 (30 min on ice) and FITC-anti mouse (30 min on ice). All samples were counter stained with propidium iodide (PI) and analyzed on a Becton-Dickinson FACScan, with live gate set to exclude PI positive cells.
# To test this further, the effects of cation combinations on Bc-12 and Bc-15 binding were examined. […] Smith, Methods Cell Biol. 69: 247-259, 2002; Hughes et al., J. Biol. Chem. 271: 6571-6574, 1996. To confirm that scFv Bc-12 and Bc-15 selectively recognize αvβ3 in its activated form, binding of these antibodies to in vitro generated and in vivo selected variants of the MDA-MB 435 breast cancer cell model was tested. […] In contrast, Bc-12 and Bc-15 were able to bind an MDA-MB 435 variant expressing constitutively activated mutant αvβ3D723R, without exogenous stimulation with Mn^2+. […] Importantly, scFvs Bc-12 and Bc-15 recognized in vivo selected MDA-MB 435 variants from bone and lung metastases, as well as metastatic cells isolated from breast cancer patient blood samples (FIG. 1C). These cells express αvβ3 in a constitutively activated form. Felding-Habermann et al., Proc. Natl. Acad. Sci. U.S.A 98: 1853-1858, 2001; Rolli et al., Proc. Natl. Acad. Sci. U.S.A 100: 9482-9487, 2003.
# tumor cell integrin αvβ3 = target: T1, tumor cell integrin αvβ3 (Homo sapiens, UniProt P05106+P06756); assay: Flow cytometry, scFv binding to BMS cells in fresh human plasma; conditions: saturable binding
# T1 construct: Primary metastatic cells from blood samples of stage IV breast cancer patients (BCM1, BCM2, BMS) were isolated; endogenous in cells; host or cells: BMS cells (primary metastatic breast cancer cells from patient blood)
# Method: FIG. 4. Patient derived ligand mimetic scFvs Bc-12 and Bc-15 against activated αvβ3 are internalized and bind to breast cancer cells in human plasma and affect breast cancer survival. Flow cytometric analysis with human metastatic breast cancer cells (BMS) isolated from a patient blood sample. All binding and washing steps were done in fresh human plasma prepared from blood anticoagulated with 50 nM PPACK.
# Flow cytometry. scFv binding to human tumor cells was analyzed by flow cytometry, initially with cloned scFv phage and then with purified scFv protein. Per sample, 2×10^5 tumor cells were blocked with goat serum and incubated either with scFv phage (2-5×10^10) (1 h at RT) followed by mouse anti-M13 mAb (Serotec) (30 min on ice) and goat FITC-anti mouse (Pierce) (30 min on ice), or with purified scFv (1.25 to 40 μg/ml, routinely 10 to 15 μg/ml) (45 min on ice), followed by mouse anti-FLAG mAb M2 (Sigma) (30 min on ice) and goat FITC-anti mouse. […] All samples were counter stained with propidium iodide (PI) and analyzed on a Becton-Dickinson FACScan, with live gate set to exclude PI positive cells.
# Antimetastatic activity of scFv antibodies against activated αvβ3 inhibit hematogenous breast cancer metastasis in vivo. […] The antibodies bound the cells in a saturable manner with half maximal binding measured at 40 nM scFv (1 μg/ml) (FIG. 4).
# T1 sequence (P06756 31-889 limits assumed): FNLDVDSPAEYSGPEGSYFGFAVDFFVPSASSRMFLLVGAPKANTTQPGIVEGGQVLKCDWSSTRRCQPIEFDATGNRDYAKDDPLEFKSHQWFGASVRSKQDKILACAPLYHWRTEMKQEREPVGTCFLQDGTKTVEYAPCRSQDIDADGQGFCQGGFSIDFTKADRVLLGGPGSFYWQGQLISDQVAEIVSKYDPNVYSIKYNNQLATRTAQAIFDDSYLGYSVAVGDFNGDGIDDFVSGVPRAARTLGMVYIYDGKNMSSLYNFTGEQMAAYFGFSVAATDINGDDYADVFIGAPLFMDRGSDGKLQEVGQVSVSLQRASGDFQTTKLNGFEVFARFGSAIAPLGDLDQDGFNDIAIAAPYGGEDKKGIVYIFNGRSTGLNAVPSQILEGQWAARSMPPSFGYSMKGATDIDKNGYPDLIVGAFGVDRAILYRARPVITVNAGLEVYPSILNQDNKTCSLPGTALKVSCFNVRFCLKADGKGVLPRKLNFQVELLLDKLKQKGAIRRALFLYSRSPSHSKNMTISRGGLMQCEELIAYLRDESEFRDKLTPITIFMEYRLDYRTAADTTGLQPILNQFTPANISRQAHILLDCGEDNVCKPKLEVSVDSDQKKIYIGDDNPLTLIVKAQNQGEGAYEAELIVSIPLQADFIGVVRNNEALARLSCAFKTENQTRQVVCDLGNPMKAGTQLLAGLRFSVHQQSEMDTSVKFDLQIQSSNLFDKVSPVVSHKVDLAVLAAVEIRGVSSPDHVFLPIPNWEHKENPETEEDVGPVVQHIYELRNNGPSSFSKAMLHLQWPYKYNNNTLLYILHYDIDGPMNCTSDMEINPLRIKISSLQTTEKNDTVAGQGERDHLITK
# T1 sequence (P06756 891-1048 partner limits assumed): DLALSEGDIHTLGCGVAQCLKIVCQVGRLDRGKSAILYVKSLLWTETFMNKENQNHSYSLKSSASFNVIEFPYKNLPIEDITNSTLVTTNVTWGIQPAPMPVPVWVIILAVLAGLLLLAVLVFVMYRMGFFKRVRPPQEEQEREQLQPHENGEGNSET
# T1 sequence (P05106 27-788): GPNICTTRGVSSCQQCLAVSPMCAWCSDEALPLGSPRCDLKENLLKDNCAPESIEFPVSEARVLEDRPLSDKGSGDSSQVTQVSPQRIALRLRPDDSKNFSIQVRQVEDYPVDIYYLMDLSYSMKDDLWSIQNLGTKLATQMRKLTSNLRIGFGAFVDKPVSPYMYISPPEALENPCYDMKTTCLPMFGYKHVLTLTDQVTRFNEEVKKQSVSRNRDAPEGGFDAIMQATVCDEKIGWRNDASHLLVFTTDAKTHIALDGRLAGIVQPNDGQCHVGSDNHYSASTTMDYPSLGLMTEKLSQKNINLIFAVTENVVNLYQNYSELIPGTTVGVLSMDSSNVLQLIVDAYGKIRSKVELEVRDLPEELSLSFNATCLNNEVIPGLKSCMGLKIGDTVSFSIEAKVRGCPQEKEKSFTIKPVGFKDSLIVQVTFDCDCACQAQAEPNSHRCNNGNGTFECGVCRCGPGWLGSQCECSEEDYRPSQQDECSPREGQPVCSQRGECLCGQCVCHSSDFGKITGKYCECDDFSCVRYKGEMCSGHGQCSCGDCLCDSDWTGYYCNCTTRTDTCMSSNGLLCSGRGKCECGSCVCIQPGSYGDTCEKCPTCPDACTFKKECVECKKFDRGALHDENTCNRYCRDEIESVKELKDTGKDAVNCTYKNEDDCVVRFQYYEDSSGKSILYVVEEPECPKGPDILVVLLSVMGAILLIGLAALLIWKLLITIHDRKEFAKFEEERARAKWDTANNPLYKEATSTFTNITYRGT
molecule,measurement,setting,value
B1,binding to MDA-MB 435 variant expressing αvβ3D723R with Mn2+,activated integrin αvβ3; Mn^2+ added,further enhanced
same,binding to MDA-MB 435 variant expressing αvβ3D723R,"activated integrin αvβ3; constitutively activated mutant, without Mn^2+",able to bind
same,binding to β3-negative MDA-MB 435 cells,activated integrin αvβ3; β3− variant,failed to bind
same,half maximal binding,tumor cell integrin αvβ3,1 µg/mL
same,EC50,tumor cell integrin αvβ3; read-out: half maximal binding,0.04 µM
